Experimental data taken from paper PMC5785977, “A dual role for the N-terminal domain of the IL-3 receptor in cell signalling” (Nature Communications, 2018).
Read-outs that look alike come from different tables or passages of the source.

Experiments:
GMRα:βc (Homo sapiens) = GMRα:βc (Homo sapiens) (UniProt P15509); details: cited from earlier work
IL5Rα:βc (Homo sapiens) = IL5Rα:βc (Homo sapiens) (UniProt Q01344); details: cited from earlier work
IL3Rα ECD (Homo sapiens) [1] = target: IL3Rα ECD (Homo sapiens) (UniProt P26951); experiment: SPR; details: cited from earlier work
IL3Rα ECD (Homo sapiens) [2] = target: IL3Rα ECD (Homo sapiens) (UniProt P26951); details: cited from earlier work
IL3Rα ECD (Homo sapiens) [3] = target: IL3Rα ECD (Homo sapiens) (UniProt P26951); experiment: SPR; details: cited from earlier work; remark: listed apart in the source
IL3Rα ECD (Homo sapiens) [4] = target: IL3Rα ECD (Homo sapiens) (UniProt P26951); experiment: SPR; details: cited from earlier work; remark: listed apart in the source
IL3Rα:βc (Homo sapiens) = IL3Rα:βc (Homo sapiens) (UniProt P26951); details: cited from earlier work
IL3Rα ECD (Homo sapiens) [5] = target: IL3Rα ECD (Homo sapiens) (UniProt P26951); experiment: SPR; details: cited from earlier work; remark: listed apart in the source
IL3Rα ECD (Homo sapiens) [6] = target: IL3Rα ECD (Homo sapiens) (UniProt P26951); experiment: SPR; details: cited from earlier work; remark: listed apart in the source
[7] = target: full-length IL3Rα expressed alone on COS cells (human) (UniProt P26951); experiment: radioligand binding; saturation binding of radioiodinated (125I) cytokine to transfected COS cells; dissociation constants by EBDA and LIGAND
[8] = target: IL3Rα SP2 + βc co-expressed on COS cells (human) (UniProt P32927); experiment: as above
[9] = target: IL3Rα D197L + βc co-expressed on COS cells (human) (UniProt P26951); experiment: as above
[10] = target: IL3Rα + βc co-expressed on COS cells (human) (UniProt P26951); experiment: as above
[11] = target: IL3Rα C76A,C195A + βc co-expressed on COS cells (human) (UniProt P26951); experiment: as above
[12] = target: T1, IL3Rα + βc co-expressed on CTLL-2 cells (human, UniProt P26951 19-378; P32927 17-897, N144 and R145 to K144); experiment: radioligand binding; saturation binding of radioiodinated (125I) cytokine to the CTLL-2 cell line expressing IL3Rα and βc; dissociation constants by EBDA and LIGAND; details: one partner purified
T1 construct: IL-3 receptor α-subunit, human, full-length; the cDNA of the site 1 functional studies in CTLL-2 encodes a splice variant that changes N144 and R145 to K144; beta common (βc) receptor subunit, human, wild-type; also called CTLL-2 IL3Rα + βc; source: CTLL-2 cells, retrovirally transduced, on cells
T1 sequence (looked up) 1: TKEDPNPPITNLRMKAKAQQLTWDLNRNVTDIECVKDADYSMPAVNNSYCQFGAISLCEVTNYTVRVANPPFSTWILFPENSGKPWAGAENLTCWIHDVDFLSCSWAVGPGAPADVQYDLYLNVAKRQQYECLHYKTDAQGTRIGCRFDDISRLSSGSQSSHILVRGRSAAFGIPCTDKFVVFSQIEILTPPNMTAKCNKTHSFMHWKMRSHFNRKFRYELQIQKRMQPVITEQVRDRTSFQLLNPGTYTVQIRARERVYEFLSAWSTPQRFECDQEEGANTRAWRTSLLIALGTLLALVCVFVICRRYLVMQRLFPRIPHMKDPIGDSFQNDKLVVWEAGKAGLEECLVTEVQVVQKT
T1 sequence (looked up) 2: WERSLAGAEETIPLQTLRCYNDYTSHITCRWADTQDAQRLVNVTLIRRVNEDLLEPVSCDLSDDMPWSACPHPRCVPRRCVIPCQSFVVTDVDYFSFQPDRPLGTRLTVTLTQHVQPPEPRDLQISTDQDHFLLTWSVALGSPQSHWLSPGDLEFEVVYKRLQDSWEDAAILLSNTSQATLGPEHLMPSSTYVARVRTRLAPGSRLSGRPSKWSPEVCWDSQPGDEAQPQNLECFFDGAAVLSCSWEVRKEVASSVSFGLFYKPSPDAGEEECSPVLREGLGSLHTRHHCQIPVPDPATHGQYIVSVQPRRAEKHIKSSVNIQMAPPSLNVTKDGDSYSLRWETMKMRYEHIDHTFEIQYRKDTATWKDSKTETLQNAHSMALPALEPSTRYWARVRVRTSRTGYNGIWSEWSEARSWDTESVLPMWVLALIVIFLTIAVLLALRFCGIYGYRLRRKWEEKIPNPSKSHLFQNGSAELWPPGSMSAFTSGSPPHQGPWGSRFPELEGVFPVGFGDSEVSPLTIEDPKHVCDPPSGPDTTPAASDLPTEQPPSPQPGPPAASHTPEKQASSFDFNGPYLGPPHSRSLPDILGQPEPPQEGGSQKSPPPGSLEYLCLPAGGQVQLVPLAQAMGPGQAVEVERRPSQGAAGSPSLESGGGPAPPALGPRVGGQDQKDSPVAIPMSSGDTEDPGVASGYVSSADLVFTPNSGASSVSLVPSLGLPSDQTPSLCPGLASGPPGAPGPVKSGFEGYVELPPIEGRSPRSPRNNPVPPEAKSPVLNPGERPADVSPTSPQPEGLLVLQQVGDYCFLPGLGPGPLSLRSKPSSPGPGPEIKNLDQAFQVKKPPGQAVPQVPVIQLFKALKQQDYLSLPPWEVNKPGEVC

[13] = target: IL-3 receptor on TF-1Hi cells (overexpressed IL3Rα) (human | human (endogenous in TF-1)) (UniProt P26951); experiment: radioligand binding; saturation binding of radioiodinated (125I) cytokine to TF-1Hi cells (overexpressed IL3Rα); dissociation constants by EBDA and LIGAND
[14] = target: IL3Rα SP2 + βc co-expressed on COS cells (human) (UniProt P32927)
[15] = target: IL3Rα D197L + βc co-expressed on COS cells (human) (UniProt P26951)
[16] = target: IL3Rα + βc co-expressed on COS cells (human) (UniProt P26951)
[17] = target: IL3Rα C76A,C195A + βc co-expressed on COS cells (human) (UniProt P26951)
[18] = target: T2, endogenous IL-3 receptor on TF-1 cells (human (endogenous in TF-1), UniProt P26951 19-378; P32927 17-897); experiment: radioligand binding; saturation binding of radioiodinated (125I) cytokine to TF-1 cells (endogenous receptor); dissociation constants by EBDA and LIGAND; details: one partner purified
T2 construct: IL-3 receptor α-subunit, endogenous in the human TF-1 erythroleukaemic cell line; beta common (βc) receptor subunit, endogenous in the human TF-1 cell line; the discussion notes that TF-1 cells also express transcripts of the IL3Rα SP2 splice variant; also called TF-1 Endogenous; source: endogenous, on TF-1 cells

Chain of GMRα:βc (Homo sapiens) (P15509 23-320): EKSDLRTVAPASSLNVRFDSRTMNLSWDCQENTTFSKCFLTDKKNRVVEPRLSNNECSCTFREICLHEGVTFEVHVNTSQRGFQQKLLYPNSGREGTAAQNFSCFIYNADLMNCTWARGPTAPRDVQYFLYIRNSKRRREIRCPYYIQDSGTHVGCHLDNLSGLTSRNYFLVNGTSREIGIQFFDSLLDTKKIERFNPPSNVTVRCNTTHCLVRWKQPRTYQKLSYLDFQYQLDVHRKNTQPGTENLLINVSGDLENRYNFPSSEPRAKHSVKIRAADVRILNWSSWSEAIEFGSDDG
Chain of IL5Rα:βc (Homo sapiens) (Q01344 21-342): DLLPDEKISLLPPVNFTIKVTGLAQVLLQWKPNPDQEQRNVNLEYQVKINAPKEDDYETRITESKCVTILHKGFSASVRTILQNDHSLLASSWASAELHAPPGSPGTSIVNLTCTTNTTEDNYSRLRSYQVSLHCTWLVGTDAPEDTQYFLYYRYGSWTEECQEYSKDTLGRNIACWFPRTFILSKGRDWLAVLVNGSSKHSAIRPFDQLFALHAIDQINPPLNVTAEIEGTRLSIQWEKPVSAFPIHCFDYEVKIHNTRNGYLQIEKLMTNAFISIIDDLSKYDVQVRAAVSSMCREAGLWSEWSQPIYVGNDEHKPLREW

Q: Which Kd (GMRα:βc (Homo sapiens)) does the source give for GM-CSF (from UniProt P04141) here?
A: Its Kd is 0.2 nM.

Q: For IL-5 (from UniProt P05113), which Kd (IL5Rα:βc (Homo sapiens)) is on record?
A: Its Kd is 0.2 nM.

Q: What does the source list for IL-3 (from UniProt P08700)?
A: Kd (IL3Rα ECD (Homo sapiens) [1]): > 5000 nM; Kd (IL3Rα ECD (Homo sapiens) [2]): 510 nM; Kd (IL3Rα ECD (Homo sapiens) [3]): 220 nM; Kd (IL3Rα ECD (Homo sapiens) [4]): > 5000 nM; Kd (IL3Rα:βc (Homo sapiens)): 0.2 nM; Kd (IL3Rα ECD (Homo sapiens) [5]): > 5000 nM; Kd (IL3Rα ECD (Homo sapiens) [6]): > 5000 nM

B1: wild-type human IL-3, residues W13 to Q125 of the mature peptide with a W13Y mutation and a GAMGS N-terminal tail (ligand)
chain: GAMGSYVNCSNMIDEIITHLKQPPLPLLDFNNLNGEDQDILMENNLRRPNLEAFNRAVKSLQNASAIESILKNLLPCLPLATAAPTRHPIHIKDGDWNEFRRKLTFYLKTLENAQAQQ
modifications: radioiodinated with 125I in the cell-surface binding assays (residue not stated)
notes: N-terminal tail arising from the expression plasmid, left after TEV cleavage; interleukin-3, human, residues W13 to Q125 of the mature peptide; numbers count on: the mature protein; also called wild-type IL-3; interleukin-3; source: E. coli BL21 CodonPlus (DE3)-RIPL, purified (HisTrap, TEV digest, SEC, reversed-phase); not shown: Nus, N-terminal, cleaved; 6xHis, N-terminal, cleaved
Q: What does the source list for B1?
A: Kd [7]: 141 nM; Kd [8]: 7.61 nM; Kd [9]: 4.37 nM; Kd [10]: 0.48 nM; Kd [11]: 1.1 nM; Kd [12]: 0.34 nM; Kd [13]: 0.14 nM; proliferation of FDH cells co-expressing βc and IL3Rα SP2, ED50 of the IL-3 dose–response [14]: 6.94 ng/mL; proliferation of FDH cells co-expressing βc and IL3Rα D197L, ED50 of the IL-3 dose–response [15]: 1.71 ng/mL; proliferation of FDH cells co-expressing βc and wild-type IL3Rα, ED50 of the IL-3 dose–response [16]: 0.29 ng/mL; proliferation of FDH cells co-expressing βc and IL3Rα C76A,C195A, ED50 of the IL-3 dose–response [17]: 12.2 ng/mL; Kd [18]: 2.06 nM

B2: human IL-3 K116W, residues W13 to Q125 of the mature peptide with a W13Y mutation and a GAMGS N-terminal tail (ligand)
chain: GAMGSYVNCSNMIDEIITHLKQPPLPLLDFNNLNGEDQDILMENNLRRPNLEAFNRAVKSLQNASAIESILKNLLPCLPLATAAPTRHPIHIKDGDWNEFRRKLTFYLWTLENAQAQQ
modifications: radioiodinated with 125I in the cell-surface binding assays (residue not stated)
notes: N-terminal tail arising from the expression plasmid, left after TEV cleavage; interleukin-3, human, residues W13 to Q125 of the mature peptide; numbers count on: the mature protein; also called IL-3 K116W superkine; IL-3 superkine; source: E. coli BL21 CodonPlus (DE3)-RIPL, purified (HisTrap, TEV digest, SEC, reversed-phase); not shown: Nus, N-terminal, cleaved; 6xHis, N-terminal, cleaved
Q: With B2 as the molecule, how does the Kd [7] read?
A: Its Kd is 17.8 nM.

Q: What about the Kd [8] of the same molecule?
A: Its Kd is 2.98 nM.

Q: What about the Kd [9] of the same molecule?
A: The Kd was 1.6 nM.

Q: And the Kd [10]?
A: Its Kd is 0.43 nM.

Q: And the Kd [11]?
A: Its Kd is 0.94 nM.

Q: And the Kd [12]?
A: The Kd was 0.14 nM.

Q: And the Kd [13]?
A: Its Kd is 0.065 nM.

Q: And the proliferation of FDH cells co-expressing βc and IL3Rα SP2, ED50 of the IL-3 K116W dose–response [14]?
A: The proliferation of FDH cells co-expressing βc and IL3Rα SP2, ED50 of the IL-3 K116W dose–response was 2.19 ng/mL.

Q: And the proliferation of FDH cells co-expressing βc and IL3Rα D197L, ED50 of the IL-3 K116W dose–response [15]?
A: The proliferation of FDH cells co-expressing βc and IL3Rα D197L, ED50 of the IL-3 K116W dose–response was 0.6 ng/mL.

Q: What about the proliferation of FDH cells co-expressing βc and wild-type IL3Rα, ED50 of the IL-3 K116W dose–response [16] of the same molecule?
A: Its proliferation of FDH cells co-expressing βc and wild-type IL3Rα, ED50 of the IL-3 K116W dose–response is 0.37 ng/mL.

Q: What about the proliferation of FDH cells co-expressing βc and IL3Rα C76A,C195A, ED50 of the IL-3 K116W dose–response [17] of the same molecule?
A: The proliferation of FDH cells co-expressing βc and IL3Rα C76A,C195A, ED50 of the IL-3 K116W dose–response was 2.51 ng/mL.

Q: And the Kd [18]?
A: Its Kd is 0.35 nM.
